Results from paper PMC11434109, “VIK‐Mediated Auxin Signaling Regulates Lateral Root Development in Arabidopsis” (Advanced Science, 2024).

Molecular target: T1, His-VIK (Arabidopsis, UniProt Q9XI87 1-438)
T1 construct: VIK, Arabidopsis, AT1G14000, N-terminal 6 x histidine tag and a full-length VIK protein; also called recombinant His-VIK; source: E. coli BL21 (DE3), purified (Ni NTA beads); not shown: His6, N-terminal, kept
T1 sequence (looked up): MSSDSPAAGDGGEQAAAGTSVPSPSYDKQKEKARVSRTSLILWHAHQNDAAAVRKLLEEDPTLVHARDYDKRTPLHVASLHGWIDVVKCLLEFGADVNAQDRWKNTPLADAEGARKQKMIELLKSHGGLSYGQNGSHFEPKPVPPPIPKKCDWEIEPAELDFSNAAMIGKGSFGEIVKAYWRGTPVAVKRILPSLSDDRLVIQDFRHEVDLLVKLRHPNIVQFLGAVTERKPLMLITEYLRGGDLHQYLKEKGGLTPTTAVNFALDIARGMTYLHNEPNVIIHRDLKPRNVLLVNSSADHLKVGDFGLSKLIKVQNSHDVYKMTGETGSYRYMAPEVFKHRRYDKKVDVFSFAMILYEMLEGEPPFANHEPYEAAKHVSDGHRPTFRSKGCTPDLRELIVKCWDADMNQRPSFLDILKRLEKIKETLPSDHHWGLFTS
Test: pull-down; GST-LBD18 immobilised on Glutathione Beads, incubated with His-VIK or His-MBP at 4 °C for 4 h; washed five times with 1 x PBS; blot with anti-His and anti-GST
Conditions: both partners purified

B1: GST-LBD18 (natural protein, Arabidopsis, UniProt O22131 1-262, looked up)
chain: MSGGGNTITAVGGGGGGCGGGGSSGGGGSSGGGGGGPCGACKFLRRKCVPGCIFAPYFDSEQGSAYFAAVHKVFGASNVSKLLLHIPVHRRSDAVVTICYEAQARIRDPIYGCVAHIFALQQQVVNLQAEVSYLQAHLASLELPQPQTRPQPMPQPQPLFFTPPPPLAITDLPASVSPLPSTYDLASIFDQTTSSSAWATQQRRFIDPRHQYGVSSSSSSVAVGLGGENSHDLQALAHELLHRQGSPPPAATDHSPSRTMSR
notes: the words full length are not used for this construct; also called recombinant GST-LBD18; source: E. coli BL21 (DE3), purified (Glutathione Beads); not shown: GST, N-terminal, kept
B1: binds.
